Results published in patent publication US20240239863A1, “GIP RECEPTOR AGONIST AND USE THEREOF” (HANGZHOU ZHONGMEIHUADONG PHARMACEUTICAL CO., LTD., priority 2022, published 2024).
Read-outs that look alike come from different tables or passages of the source. Non-standard residues stand in square brackets, D forms with d. No end group written: not given here. Aib = CC(C)(N)C(=O)O

T1: human GIP receptor (glucose-dependent insulinotropic peptide receptor, GIPR) (human, UniProt P48546 22-466)
T1 sequence (looked up): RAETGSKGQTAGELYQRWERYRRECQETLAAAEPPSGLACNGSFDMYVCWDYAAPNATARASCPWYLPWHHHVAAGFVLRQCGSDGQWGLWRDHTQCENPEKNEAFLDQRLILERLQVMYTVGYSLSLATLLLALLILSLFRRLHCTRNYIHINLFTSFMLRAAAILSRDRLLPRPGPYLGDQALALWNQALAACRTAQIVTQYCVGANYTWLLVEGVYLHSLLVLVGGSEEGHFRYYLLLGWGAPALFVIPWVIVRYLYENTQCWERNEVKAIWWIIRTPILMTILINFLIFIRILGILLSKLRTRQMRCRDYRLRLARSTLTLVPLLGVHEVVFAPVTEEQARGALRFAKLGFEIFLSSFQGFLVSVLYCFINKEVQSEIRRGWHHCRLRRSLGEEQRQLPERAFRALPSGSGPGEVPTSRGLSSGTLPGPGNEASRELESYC


Experiments:
Assay in all cases: cell-based or functional assay
[1] = molecular target: T1, human GIP receptor (glucose-dependent …)
[2] = molecular target: T2, human GLP-1 receptor (human, UniProt P43220 24-463)
[3] = molecular target: T1, human GIP receptor (glucose-dependent …); remark: listed apart in the source
[4] = molecular target: T2, human GLP-1 receptor; remark: listed apart in the source

| Binder | EC50(pM), cell agonistic activity (cAMP, HTRF) [1] [pM] | EC50(pM), cell agonistic activity [2] [pM] | EC50(pM), cell agonistic activity (cAMP, HTRF) [3] [pM] | EC50(pM), cell agonistic activity [4] [pM] |
| --- | --- | --- | --- | --- |
| Y[Aib]EGTFISDYSIALDK(18‑(((23R)-23-carboxyl-2,11,20-trioxo-10,19-diaza-4,7,13,16-tetraoxatricosyl-23-yl)amino)‑18‑oxooctadecanoic acid acetyl)LHQEDFVNWLLAQRG | 6.82 | > 100 | – | – |
| Y[Aib]EGTFISDYSI[Aib]LDKIHQEDFVKWLLAQKG [Sequence 1 (Seq ID. 1)] | – | – | 2.38 | > 100 |
| Y[Aib]EGTFISDYSI[Aib]LDEIHQKDFVKWLLAQKG [Sequence 2 (Seq ID. 2)] | – | – | 10.7 | > 100 |
| Y[Aib]EGTFISDYSIALDRIHQQDFVKWLLAQRG (also: long-acting conjugating component, site and structure not given here) [Peptide 13 (long-acting conjugate of GIP analog, Seq ID. 13)] | 5.61 | > 100 | – | – |
| Y[Aib]EGTFISDYSIALDEIHQKDFVNWLLAQRG (also: long-acting conjugating component, site and structure not given here) [Peptide 5 (long-acting conjugate of GIP analog, Seq ID. 5)] | 27 | > 100 | – | – |
| Y[Aib]EGTFISDYSIALDRIHQQDFVNWLLAQK(18‑(((23R)-23-carboxyl-2,11,20-trioxo-10,19-diaza-4,7,13,16-tetraoxatricosyl-23-yl)amino)‑18‑oxooctadecanoic acid acetyl)G | 3.5 | > 100 | – | – |
| Y[Aib]EGTFISDYSIALDK(18‑(((23R)-23-carboxyl-2,11,20-trioxo-10,19-diaza-4,7,13,16-tetraoxatricosyl-23-yl)amino)‑18‑oxooctadecanoic acid acetyl)LHQQDFVNWLLAQRG | 4.26 | > 100 | – | – |
| Y[Aib]EGTFISDYSIALDRLHQEDFVKWLLAQRG (also: long-acting conjugating component, site and structure not given here) [Peptide 15 (long-acting conjugate of GIP analog, Seq ID. 15)] | 9.14 | > 100 | – | – |
| Y[Aib]EGTFISDYSIALDRIHQEDFVNWLLAQKG (also: long-acting conjugating component, site and structure not given here) [Peptide 12 (long-acting conjugate of GIP analog, Seq ID. 12)] | 5.14 | > 100 | – | – |
| Y[Aib]EGTFISDYSIALDRLHQQDFVNWLLAQKG (also: long-acting conjugating component, site and structure not given here) [Peptide 18 (long-acting conjugate of GIP analog, Seq ID. 18)] | 21.1 | > 100 | – | – |
| Y[Aib]EGTFISDYSIALDK(18‑(((23R)-23-carboxyl-2,11,20-trioxo-10,19-diaza-4,7,13,16-tetraoxatricosyl-23-yl)amino)‑18‑oxooctadecanoic acid acetyl)IHQEDFVNWLLAQRG | 7.24 | > 100 | – | – |
| Y[Aib]EGTFISDYSIALDRLHQQDFVNWLLAQKG [Sequence 18 (Seq ID. 18)] | – | – | 16.9 | > 100 |
| Y[Aib]EGTFISDYSIALDRLHQEDFVNWLLAQKG [Sequence 16 (Seq ID. 16)] | – | – | 25.5 | > 100 |
| Y[Aib]EGTFISDYSIALDRIHQEDFVKWLLAQRG (also: long-acting conjugating component, site and structure not given here) [Peptide 11 (long-acting conjugate of GIP analog, Seq ID. 11)] | 3.5 | > 100 | – | – |
| Y[Aib]EGTFISDYSIALDRLHQEDFVNWLLAQKG (also: long-acting conjugating component, site and structure not given here) [Peptide 16 (long-acting conjugate of GIP analog, Seq ID. 16)] | 3.77 | > 100 | – | – |
| Y[Aib]EGTFISDYSIALDRLHQQDFVKWLLAQRG [Sequence 17 (Seq ID. 17)] | – | – | 58.2 | > 100 |
| Y[Aib]EGTFISDYSIALDELHQKDFVNWLLAQRG (also: long-acting conjugating component, site and structure not given here) [Peptide 6 (long-acting conjugate of GIP analog, Seq ID. 6)] | 32.2 | > 100 | – | – |
| Y[Aib]EGTFISDYSIALDK(18‑(((23R)-23-carboxyl-2,11,20-trioxo-10,19-diaza-4,7,13,16-tetraoxatricosyl-23-yl)amino)‑18‑oxooctadecanoic acid acetyl)IHQQDFVNWLLAQRG | 6.66 | > 100 | – | – |
| Y[Aib]EGTFISDYSIALDRLHQQDFVKWLLAQRG (also: long-acting conjugating component, site and structure not given here) [Peptide 17 (long-acting conjugate of GIP analog, Seq ID. 17)] | 25.7 | > 100 | – | – |
